# Test results from publication PMC2475671.
# Biological target: Orc2-GFP (Drosophila (endogenous in salivary glands)) (UniProt Q24168)
# Assay: FRET or BRET; acceptor photobleaching (543 nm laser) of Rbf1N-RFP (mCherry) with Orc2-GFP (EGFP) as donor, in chromatin-washed, formaldehyde-fixed salivary gland nuclei; ratio of bleached to non-bleached areas in three nuclei
# Chain of UniProt Q24168 (Q24168 whole entry): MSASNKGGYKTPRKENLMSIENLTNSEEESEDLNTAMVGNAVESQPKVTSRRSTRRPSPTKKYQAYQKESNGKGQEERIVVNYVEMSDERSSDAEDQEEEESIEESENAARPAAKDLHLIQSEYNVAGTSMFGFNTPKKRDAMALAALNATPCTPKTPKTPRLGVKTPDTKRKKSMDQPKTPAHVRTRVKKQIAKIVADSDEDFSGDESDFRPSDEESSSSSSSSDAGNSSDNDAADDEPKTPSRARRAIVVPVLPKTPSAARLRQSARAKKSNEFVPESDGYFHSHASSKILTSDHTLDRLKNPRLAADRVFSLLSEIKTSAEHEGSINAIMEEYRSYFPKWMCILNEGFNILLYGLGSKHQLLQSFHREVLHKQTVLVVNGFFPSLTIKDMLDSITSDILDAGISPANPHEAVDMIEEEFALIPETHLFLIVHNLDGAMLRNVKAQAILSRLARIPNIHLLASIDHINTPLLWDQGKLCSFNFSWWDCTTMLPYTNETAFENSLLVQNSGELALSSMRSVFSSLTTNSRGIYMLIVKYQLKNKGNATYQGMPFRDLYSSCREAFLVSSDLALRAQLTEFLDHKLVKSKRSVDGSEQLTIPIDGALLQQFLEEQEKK
substance,measurement,value
"Rbf1N-RFP (Rbf1 amino acids 1–345 with C-terminal V5 and mCherry, Lys241Glu) (domain or fragment)",fold increase of GFP fluorescence after RFP photobleaching,1.5 to 2 fold
